Reference: patent publication US20070071744A1 (published 2007)
Ends that are not written are not given here.

How the values were obtained:
Test in all cases: PepSpot peptide array
[1] = target: T1, peptide 25 (human)
T1 peptide: Ac-QGPPGVDLYRLEK
Method: (§1) The peptides were synthesized on a cellulose membrane in a stepwise manner resulting in a defined arrangement (peptide array) and are covalently bound to the cellulose membrane. Binding assays were performed directly on the peptide array. In general an antigen peptide array is incubated with blocking buffer for several hours to reduce non-specific binding of proteins or antibodies. It follows the incubation with a primary (antigen peptide-binding) antibody in blocking buffer and an incubation with a horseradish peroxidase (HRP)-labelled secondary antibody, which binds selectively the primary antibody. Alternatively a HRP-labelled primary antibody in blocking buffer can be used.
(§2) A short T(Tween)-TBS-buffer washing directly after the incubation of the antigen peptide array with the secondary protein or antibody or the HRP-labelled primary antibody followed by the first chemiluminescence experiment is made to get an first overview which antigen peptides do bind the primary antibody. Several buffer washing steps follow (T-TBS- and TBS-buffer) to reduce false positive binding (unspecific antibody binding to the cellulose membrane itself). After these washing steps the final chemiluminescence analysis is performed. The data were analysed with an imaging system showing the signal intensity (Light units, LU) as single measurements for each peptide. In order to evaluate non-specific binding of secondary antibodies, incubations using the secondary antibody have to be performed in the absence of the primary antibody as control incubation.

[2] = target: T2, peptide 78 (human)
T2 peptide: Ac-KNPERWYRASFPI
Method: as §1, §2

[3] = target: T3, peptide 50 (human)
T3 peptide: Ac-PSDQLELVATGVF
Method: as §1, §2

[4] = target: T4, peptide 46 (human)
T4 peptide: Ac-QNGSLWSLPSDQL
Method: as §1, §2

[5] = target: T5, peptide 77 (human)
T5 peptide: Ac-PYKNPERWYRASF
Method: as §1, §2

[6] = target: T6, peptide 115 (human)
T6 peptide: Ac-ELTVSFTNKVFTT
Method: as §1, §2

[7] = target: T7, peptide 87 (human)
T7 peptide: Ac-AHSGTYRCYSFSS
Method: as §1, §2

[8] = target: T8, peptide 31 (human)
T8 peptide: Ac-KLSSSRYQDQAVL
Method: as §1, §2

[9] = target: T9, peptide 42 (human)
T9 peptide: Ac-AGRYRCSYQNGSL
Method: as §1, §2

[10] = target: T10, peptide 94 (human)
T10 construct: also called DPYLWSAPSDPLE
T10 peptide: Ac-DPYLWSAPSDPLE
Method: as §1, §2

[11] = target: T11, peptide 8 (human)
T11 peptide: Ac-LGRVPAQSGPLPK
Method: as §1, §2

[12] = target: T12, peptide 127 (human)
T12 peptide: Ac-ESDSPAGPARQYY
Method: as §1, §2

[13] = target: T13, peptide 126 (human)
T13 peptide: Ac-PKESDSPAGPARQ
Method: as §1, §2

[14] = target: T14, peptide 100 (human)
T14 peptide: Ac-ELVVTGTSVTPSR
Method: as §1, §2

[15] = target: T15, peptide 71 (human)
T15 peptide: Ac-DQFALYKEGDPAP
Method: as §1, §2

[16] = target: T16, peptide 85 (human)
T16 peptide: Ac-TVTAAHSGTYRCY
Method: as §1, §2

[17] = target: T17, peptide 1 (human)
T17 peptide: Ac-MSPSPTALFCLGL
Method: as §1, §2

[18] = target: T18, peptide 54 (human)
T18 peptide: Ac-ATGVFAKPSLSAQ
Method: as §1, §2

[19] = target: T19, peptide 112 (human)
T19 peptide: Ac-FSEATAELTVSFT
Method: as §1, §2

[20] = target: T20, peptide 60 (human)
T20 peptide: Ac-QPGPAVSSGGDVT
Method: as §1, §2

[21] = target: T21, peptide 116 (human)
T21 peptide: Ac-TVSFTNKVFTTET
Method: as §1, §2

[22] = target: T22, peptide 27 (human)
T22 peptide: Ac-GVDLYRLEKLSSS
Method: as §1, §2

[23] = target: T23, peptide 123 (human)
T23 peptide: Ac-RSITTSPKESDSP
Method: as §1, §2

[24] = target: T24, peptide 34 (human)
T24 peptide: Ac-YQDQAVLFIPAMK
Method: as §1, §2

[25] = target: T25, peptide 53 (human)
T25 peptide: Ac-LVATGVFAKPSLS
Method: as §1, §2

[26] = target: T26, peptide 41 (human)
T26 peptide: Ac-SLAGRYRCSYQNG
Method: as §1, §2

[27] = target: T27, peptide 80 (human)
T27 peptide: Ac-RWYRASFPIITVT
Method: as §1, §2

[28] = target: T28, peptide 3 (human, cysteine pairing not given here)
T28 peptide: Ac-PTALFCLGLCLGR
Method: as §1, §2

[29] = target: T29, peptide 11 (human)
T29 construct: also called QSGPLPKPSLQAL
T29 peptide: Ac-QSGPLPKPSLQAL
Method: as §1, §2

[30] = target: T30, peptide 44 (human)
T30 peptide: Ac-RCSYQNGSLWSLP
Method: as §1, §2

[31] = target: T31, peptide 63 (human)
T31 peptide: Ac-SSGGDVTLQCQTR
Method: as §1, §2

[32] = target: T32, peptide 14 (human)
T32 peptide: Ac-KPSLQALPSSLVP
Method: as §1, §2

[33] = target: T33, peptide 72 (human)
T33 peptide: Ac-FALYKEGDPAPYK
Method: as §1, §2

[34] = target: T34, peptide 59 (human)
T34 peptide: Ac-SAQPGPAVSSGGD
Method: as §1, §2

[35] = target: T35, peptide 22 (human)
T35 peptide: Ac-PVTLRCQGPPGVD
Method: as §1, §2

[36] = target: T36, peptide 84 (human)
T36 peptide: Ac-IITVTAAHSGTYR
Method: as §1, §2

[37] = target: T37, peptide 107 (human)
T37 peptide: Ac-PTEPPSSVAEFSE
Method: as §1, §2

[38] = target: T38, peptide 52 (human)
T38 peptide: Ac-LELVATGVFAKPS
Method: as §1, §2

[39] = target: T39, peptide 33 (human)
T39 peptide: Ac-SRYQDQAVLFIPA
Method: as §1, §2

[40] = target: T40, peptide 55 (human)
T40 peptide: Ac-GVFAKPSLSAQPG
Method: as §1, §2

[41] = target: T41, peptide 73 (human)
T41 peptide: Ac-LYKEGDPAPYKNP
Method: as §1, §2

LU (Light Units) [1]: 56 LU
LU (Light Units) [2]: 51 LU
LU (Light Units) [3]: 38 LU
LU (Light Units) [4]: 1 LU
LU (Light Units) [5]: 97 LU
LU (Light Units) [6]: 143 LU
LU (Light Units) [7]: 93 LU
LU (Light Units) [8]: 211 LU
LU (Light Units) [9]: 41 LU
LU (Light Units) [10]: 63 LU
LU (Light Units) [11]: 794 LU
LU (Light Units) [12]: 101 LU
LU (Light Units) [13]: 119 LU
LU (Light Units) [14]: 114 LU
LU (Light Units) [15]: 29 LU
LU (Light Units) [16]: 14 LU
LU (Light Units) [17]: 149 LU
LU (Light Units) [18]: 1210 LU
signal to noise ratio [18]: ~4 ratio
LU (Light Units) [19]: 100 LU
LU (Light Units) [20]: 88 LU
LU (Light Units) [21]: 224 LU
LU (Light Units) [22]: 100 LU
LU (Light Units) [23]: 91 LU
LU (Light Units) [24]: 125 LU
LU (Light Units) [25]: 359 LU
LU (Light Units) [26]: 8 LU
LU (Light Units) [27]: 184 LU
LU (Light Units) [28]: 74 LU
LU (Light Units) [29]: 3540 LU
signal to noise ratio [29]: ~20 ratio
LU (Light Units) [30]: 9 LU
LU (Light Units) [31]: 2 LU
LU (Light Units) [32]: 1420 LU
LU (Light Units) [33]: 35 LU
LU (Light Units) [34]: 155 LU
LU (Light Units) [35]: 76 LU
LU (Light Units) [36]: 87 LU
LU (Light Units) [37]: 71 LU
LU (Light Units) [38]: 148 LU
LU (Light Units) [39]: 259 LU
LU (Light Units) [40]: 810 LU
LU (Light Units) [41]: 33 LU
B1: monoclonal antibody hGP 5C4 (antibody, V domains shown)
VH: EVKLQESGGGLVQPGRSLKLSCTASGFTFSDYFMSWVRQAPTRGLEWVASISSGGASAYWRDSVKGRFTISRDNAKSALYLQMDSLRSEDTATYFCARGELDFDYWGQGVMVAVSS
VL: ADPNSTLLSASVGDRVTLNCTASQNVYKNLAWYQQKLGEAPRLLLYSANSQTGIPSRFSGSGSGPDFTLTISSLQPEDVASYFCQQYYSGNTFGAGTKLELKR
notes: Rat hybridoma antibody (Lou/C rats), heavy chain gamma 2a, light chain kappa; also called ab 5C4; anti-GPVI mAb 5C4
